Laboratory results published in patent US20240141028A1 (RHODE ISLAND HOSPITAL, published 2024).

Target: T1, PfGARP aa 443-459 (…) (Plasmodium falciparum)
T1 construct: Stood on the microarray as overlapping 15-mer peptides, not as one 17-mer
Assay: microarray of overlapping 15-mer peptides
Excerpt: The peptides overlapped by a single amino acid and were printed in duplicate, framed by HA control peptides.
For epitope mapping, a custom 15-mer peptide microarray was designed and printed. […] The peptides overlapped by a single amino acid and were printed in duplicate, framed by HA control peptides. […] A duplicate array was probed with polyclonal, monospecific anti-PfGARP-A mouse antibodies (red).

B1: recombinant monoclonal anti-PfGARP (rec mAb7899) (antibody, V domains shown)
VH: EAQLQQSGTELVKPGASVKLSCTASGFYIKDTYIHWVRQRPVQGLEWIGRIDPANYDTKYDPKFQGKATITADTSSNTAYLQLINLTPEDTVVYYCTSFGGTKLRFAYWGQGTLVTVSA
VL: NIMMTQSPSSLAVSAGEEVTMSCKSSQSVLYSSNQRNYLAWFQQKSGQSPKLLIYWASTRESGVPDRFTGSGSGTDFTLTISNLQVEDLAVYYCLQHFSSWTFGGGTKLEIK
notes: also called recombinant mAb7899; recombinant mAb
binding result: binds
